According to US20050244915:
Positions count from the first letter of the chain named.

Key:
[1] = target: T1, GST HIF-1α 775-826 N803A
T1 chain: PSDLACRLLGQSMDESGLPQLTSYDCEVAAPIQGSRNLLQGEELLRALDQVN

[2] = target: GST HIF-1α 577-826, Q16665
[3] = target: T2, His6-HIF-1α 530-698, Q16665
T2 chain: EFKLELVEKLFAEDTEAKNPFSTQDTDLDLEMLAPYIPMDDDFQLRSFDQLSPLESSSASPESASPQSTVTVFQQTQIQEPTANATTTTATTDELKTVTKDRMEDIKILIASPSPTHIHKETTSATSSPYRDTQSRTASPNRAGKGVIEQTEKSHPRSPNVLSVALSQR

[4] = target: T3, His6-HIF-1α 344-503, Q16665
T3 chain: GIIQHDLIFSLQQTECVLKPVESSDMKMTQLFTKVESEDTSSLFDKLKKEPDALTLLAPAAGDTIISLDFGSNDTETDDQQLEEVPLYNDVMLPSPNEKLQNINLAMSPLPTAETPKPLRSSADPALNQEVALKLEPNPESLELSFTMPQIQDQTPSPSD

[5] = target: GST HIF-1α 775-826 N803E, Q16665
[6] = target: GST HIF-1α 775-826 [GST: P08515]
[7] = target: T4, HIF-1α 775-826, Q16665
T4 chain: T1 chain with A29N

[8] = target: T5, GST HIF-1α 530-652, Q16665
T5 chain: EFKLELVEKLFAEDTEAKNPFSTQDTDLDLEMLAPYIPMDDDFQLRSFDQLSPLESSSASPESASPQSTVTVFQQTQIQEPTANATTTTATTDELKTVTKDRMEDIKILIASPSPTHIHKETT

[9] = target: GST HIF-1α 775-826 N803Q, Q16665
[10] = target: GST HIF-1α 775-826 N803D, Q16665

B1: Factor Inhibiting HIF (FIH), recombinant (protein)
chain: MAATAAEAVASGSGEPREEAGALGPAWDESQLRSYSFPTRPIPRLSQSDPRAEELIENEEPVVLTDTNLVYPALKWDLEYLQENIGNGDFSVYSASTHKFLYYDEKKMANFQNFKPRSNREEMKFHEFVEKLQDIQQRGGEERLYLQQTLNDTVGRKIVMDFLGFNWNWINKQQGKRGWGQLTSNLLLIGMEGNVTPAHYDEQQNFFAQIKGYKRCILFPPDQFECLYPYPVHHPCDRQSQVDFDNPDYERFPNFQNVVGYETVVGPGDVLYIPMYWWHHIESLLNGGITITVNFWYKGAPTPKRIEYPLKAHQKVAIMRNIEKMLGEALGNPQEVGPLLNTMIKGRYN
Protein B1 has a % activity relative to 775-826 peptide [1] of less than 0.01%, a CO2 released [1] of less than 0.001 nmol and a % activity relative to 775-826 peptide [2] of 67%. It also gave a CO2 released [2] of 0.81 nmol, a % activity relative to 775-826 peptide [3] of less than 0.01% and a CO2 released [3] of less than 0.001 nmol. It also gave a % activity relative to 775-826 peptide [4] of less than 0.01%, a CO2 released [4] of less than 0.001 nmol and a % activity relative to 775-826 peptide [5] of less than 0.01%. For the same protein, the CO2 released [5] was less than 0.001 nmol, the % activity relative to 775-826 peptide [6] was 96% and the CO2 released [6] was 2.7 nmol. For the same protein, the % activity relative to 775-826 peptide [7] was 100%, the CO2 released [7] was 2.8 nmol and the “Km(peptide), 2-OG turnover assay” value [7] was “Km(peptide)=10 µM”. For the same protein, the “Vmax, 2-OG turnover assay” value [7] was “Vmax=0.3 µmol/min/mg”, the “mass increase of the substrate after reaction (mass spectrometry)” value [7] was “an increase in mass of 16Da was observed after HPLC isolation of product” and the % activity relative to 775-826 peptide [8] was 1.8%. The CO2 released [8] was 0.05 nmol, the % activity relative to 775-826 peptide [9] was less than 0.01% and the CO2 released [9] was less than 0.001 nmol. It also gave a % activity relative to 775-826 peptide [10] of 7% and a CO2 released [10] of 0.22 nmol.
